# “And” between values parts separate entries of the source, which are not always exact repeats. Identical values can stand only once.
# B1: His-tagged cytosolic part of SpoIIE (375-827 aa) (domain or fragment, B. subtilis, UniProt P37475 375-827, looked up)
# chain: YQASDEQTDDSEVDLFLSKITEHSCQTCYKKNRCWVQNFDKTYDLMKQVMLETEEKEYASNRRLKKEFQQYCSKSKQVEELIEDELAHHHAHLTLKKKVQDSRRLVAEQLLGVSEVMADFSREIKREREQHFLQEEQIIEALQHFGIEIQHVEIYSLEQGNIDIEMTIPFSGHGESEKIIAPMLSDILEEQILVKAEQHSPHPNGYSHVAFGSTKSYRVSTGAAHAAKGGGLVSGDSYSMMELGARKYAAAISDGMGNGARAHFESNETIKLLEKILESGIDEKIAIKTINSILSLRTTDEIYSTLDLSIIDLQDASCKFLKVGSTPSFIKRGDQVMKVQASNLPIGIINEFDVEVVSEQLKAGDLLIMMSDGIFEGPKHVENHDLWMKRKMKGLKTNDPQEIADLLMEEVIRTRSGQIEDDMTVVVVRIDHNTPKWASIPVPAIFQNKQEIS
# notes: SpoIIE, Bacillus subtilis, cytosolic part, residues 375-827; Elutes as dimers, tetramers and higher oligomers; also called cyt-SpoIIE; not shown: His-tag, N-terminal, kept
# Target: the molecule itself
# Assay: SEC; Superdex S200 16/60 in 50 mM Tris-HCl pH 8.5, 300 mM NaCl; proteins applied separately or mixed (350 ul RefZ 28.8 uM premixed with 350 ul cyt-SpoIIE 15.5 uM, dialyzed overnight, 500 ul loaded); fractions analysed by anti-His Western blot
protein,measurement,value
B1,stoichiometry N,2 and 4

# Source: article PMC11154705, “Spatio-temporal control of asymmetric septum positioning during sporulation in Bacillus subtilis” (The Journal of Biological Chemistry, 2024)
